# Test results taken from IntAct's records for PubMed 9499404.
# B1: Cell division control protein 53 (Saccharomyces cerevisiae), Q12018 (parent)
# chain: MSETLPRSDDLEATWNFIEPGINQILGNEKNQASTSKRVYKILSPTMYMEVYTAIYNYCVNKSRSSGHFSTDSRTGQSTILVGSEIYEKLKNYLKNYILNFKQSNSETFLQFYVKRWKRFTIGAIFLNHAFDYMNRYWVQKERSDGKRHIFDVNTLCLMTWKEVMFDPSKDVLINELLDQVTLGREGQIIQRSNISTAIKSLVALGIDPQDLKKLNLNVYIQVFEKPFLKKTQEYYTQYTNDYLEKHSVTEYIFEAHEIIKREEKAMTIYWDDHTKKPLSMALNKVLITDHIEKLENEFVVLLDARDIEKITSLYALIRRDFTLIPRMASVFENYVKKTGENEISSLLAMHKHNIMKNENANPKKLALMTAHSLSPKDYIKKLLEVHDIFSKIFNESFPDDIPLAKALDNACGAFININEFALPAGSPKSATSKTSEMLAKYSDILLKKATKPEVASDMSDEDIITIFKYLTDKDAFETHYRRLFAKRLIHGTSTSAEDEENIIQRLQAANSMEYTGKITKMFQDIRLSKILEDDFAVALKNEPDYSKAKYPDLQPFVLAENMWPFSYQEVEFKLPKELVPSHEKLKESYSQKHNGRILKWLWPLCRGELKADIGKPGRMPFNFTVTLFQMAILLLYNDADVLTLENIQEGTSLTIQHIAAAMVPFIKFKLIQQVPPGLDALVKPETQFKLSRPYKALKTNINFASGVKNDILQSLSGGGHDNHGNKLGNKRLTEDERIEKELNTERQIFLEACIVRIMKAKRNLPHTTLVNECIAQSHQRFNAKVSMVKRAIDSLIQKGYLQRGDDGESYAYLA
# partner: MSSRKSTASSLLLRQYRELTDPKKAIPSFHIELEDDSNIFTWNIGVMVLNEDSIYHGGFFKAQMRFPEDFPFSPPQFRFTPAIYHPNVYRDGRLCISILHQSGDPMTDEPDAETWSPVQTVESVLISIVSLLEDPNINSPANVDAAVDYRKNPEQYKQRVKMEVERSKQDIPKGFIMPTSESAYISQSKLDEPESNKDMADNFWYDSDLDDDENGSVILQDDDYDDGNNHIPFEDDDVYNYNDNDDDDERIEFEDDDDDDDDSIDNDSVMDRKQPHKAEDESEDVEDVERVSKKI
# Variants of: B1
# Conditions: with ubc3_yeast CDC34, P14682
row,effect of a mutation on the interaction,Variant
1,disrupting interaction,R488C
